What was measured:
[1] = target: CD56 on the surface of human neuroblastoma cells (human) (UniProt P13591); test: flow cytometry, isotype control staining of Kelly cells
[2] = target: CD56 on the surface of human neuroblastoma cells (human) (UniProt P13591); test: flow cytometry, isotype control staining of SKNAS cells
[3] = target: CD56 on the surface of human neuroblastoma cells (human) (UniProt P13591); test: flow cytometry, MY31 staining of Kelly cells, untreated
[4] = target: CD56 on the surface of human neuroblastoma cells (human) (UniProt P13591); test: flow cytometry, MY31 staining of SKNAS cells, untreated
[5] = target: CD56 on the surface of human neuroblastoma cells (human) (UniProt P13591); test: flow cytometry, MY31 staining of Kelly cells after overnight treatment with 25 nM control IgG
[6] = target: CD56 on the surface of human neuroblastoma cells (human) (UniProt P13591); test: flow cytometry, MY31 staining of SKNAS cells after overnight treatment with 25 nM control IgG
[7] = target: CD56 on the surface of human neuroblastoma cells (human) (UniProt P13591); test: flow cytometry, MY31 staining of Kelly cells after overnight treatment with 25 nM m906 (remaining surface CD56)
[8] = target: CD56 on the surface of human neuroblastoma cells (human) (UniProt P13591); test: flow cytometry, MY31 staining of Kelly cells after overnight treatment with 50 nM m906 (remaining surface CD56)
[9] = target: CD56 on the surface of human neuroblastoma cells (human) (UniProt P13591); test: flow cytometry, MY31 staining of SKNAS cells after overnight treatment with 25 nM m906 (remaining surface CD56)
[10] = target: CD56 on the surface of human neuroblastoma cells (human) (UniProt P13591); test: flow cytometry, MY31 staining of SKNAS cells after overnight treatment with 50 nM m906 (remaining surface CD56)
[11] = target: CD56 on the surface of human neuroblastoma cells (human) (UniProt P13591); test: flow cytometry, MY31 staining of Kelly cells after overnight treatment with 12.5 nM m906 (remaining surface CD56)
[12] = target: CD56 on the surface of human neuroblastoma cells (human) (UniProt P13591); test: flow cytometry, MY31 staining of SKNAS cells after overnight treatment with 12.5 nM m906 (remaining surface CD56)

Row | Substance | Geometric Mean [1] | Geometric Mean [2] | Geometric Mean [3] | Geometric Mean [4] | Geometric Mean [5] | Geometric Mean [6] | Geometric Mean [7] | Geometric Mean [8] | Geometric Mean [9] | Geometric Mean [10] | Geometric Mean [11] | Geometric Mean [12]
1 | PE Isotype Control (antibody) | 4710 | 10700 |  |  |  |  |  |  |  |  |  | 
2 | anti-CD56 antibody MY31 |  |  | 53700 | 12500 | 63700 | 13300 | 6420 | 6030 | 10600 | 10300 | 7150 | 10200
